Data taken from paper PMC7861488.
Like-named read-outs stand apart in the source and are kept apart here.

Columns and labels:
Experiment in all cases: graphene FET
TNF-alpha [1] = molecular target: T1, TNF-alpha (UniProt P01375 77-233)
TNF-alpha [2] = molecular target: T1, TNF-alpha; remark: listed apart in the source
TNF-alpha [3] = molecular target: T1, TNF-alpha; remark: listed apart in the source
TNF-alpha [4] = molecular target: T1, TNF-alpha; remark: listed apart in the source
TNF-alpha [5] = molecular target: T1, TNF-alpha; remark: listed apart in the source
TNF-alpha [6] = molecular target: T1, TNF-alpha; remark: listed apart in the source
TNF-alpha [7] = molecular target: T1, TNF-alpha; remark: listed apart in the source
TNF-alpha [8] = molecular target: T1, TNF-alpha; remark: listed apart in the source
TNF-alpha [9] = molecular target: T1, TNF-alpha; remark: listed apart in the source

T1 sequence (P01375 77-233): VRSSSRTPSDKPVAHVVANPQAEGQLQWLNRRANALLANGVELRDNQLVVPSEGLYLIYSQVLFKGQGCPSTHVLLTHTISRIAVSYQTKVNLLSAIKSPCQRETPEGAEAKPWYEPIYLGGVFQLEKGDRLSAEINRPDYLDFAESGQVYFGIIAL

## TGGTGGATGGCGCAGTCGGCGACAA (ssDNA, 5'-NH2 (coupled to PASE on graphene)) [VR11]
TNF-alpha [1]
  Kd: 14.7 nM
TNF-alpha [2]
  Kd: 15.6 nM
TNF-alpha [3]
  Kd: 14.2 nM
TNF-alpha [4]
  Kd: 14.3 nM
TNF-alpha [5]
  Kd: 15 nM
TNF-alpha [6]
  Kd: 15.1 nM
TNF-alpha [7]
  Kd: 14.2 nM
TNF-alpha [8]
  Kd: 15.1 nM
TNF-alpha [9]
  Kd: 15.5 nM
